Our source for the amyloid nucleation score values is the supplement of paper PMC12042874.

The nature of the series: amyloid nucleation score (Sup35N fusion, yeast selection) (log enrichment); library NNK3; higher = more nucleation; inactive = no reads after selection. Summed up: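 The nucleation score is the log enrichment of output over input reads, calculated with DiMSum and centred on the mode score of non-aggregating sequences. Sequences with under 100 input reads were excluded. Reads came from Illumina sequencing of plasmid inserts from psi-negative yeast expressing Sup35N fused to peptides of 20 random codons, induced 24 hours with 100 μM copper sulfate and grown 7 days at 30°C without adenine and uracil.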

± gives the uncertainty stated by the source.

For the substance VCLLNWFWIYDQYVRQLTVV, the amyloid nucleation score result is “inactive”.

FHSSFSVYCPFNSMLASV: the amyloid nucleation score was 0.005 ± 0.58.

On to RFESHSL, for which the amyloid nucleation score entry was “inactive”.

TVSIRIINT: the amyloid nucleation score amounted to 0.15 ± 0.66.

With TNANFATDSHFLVITE, the amyloid nucleation score entry was “inactive”.

FGTVAWPITFIIRMAVGSSC registered an amyloid nucleation score of 0.936 ± 0.15.

The substance CLLTLMREVSCLLYFYHRAW returned an amyloid nucleation score of 1.56 ± 0.091.

On to FLKYTITHLCSRPRIYLGIS, for which the amyloid nucleation score stood at 0.16 ± 0.22.

Consider TKECGKKFNYWVRIDLSRLW, for which the amyloid nucleation score entry is “inactive”.

RQHLFRSWEVQMSLSLDF yielded an amyloid nucleation score of -0.379 ± 0.63.

Regarding ANMCNCKAIHRFNKFNICSR, the amyloid nucleation score entry is “inactive”.

As for PTITMANKDRFLRRCSPNGG, the amyloid nucleation score result was “inactive”.

With RNGIVGD, the amyloid nucleation score entry was “inactive”.

Turning to CYTIRLWARLNLCRGIKS, the amyloid nucleation score was -0.439 ± 1.1.

For the substance KYKVDIMLRIARSTVFSDSF, the amyloid nucleation score entry is “inactive”.

Take HLSLAVEFA: the amyloid nucleation score result was “inactive”.

On to FNRKCVSVCRVRGGICWRSQ, for which the amyloid nucleation score entry was “inactive”.

Consider FDEDRREV, for which the amyloid nucleation score entry is “inactive”.

Substance KYCNFTGVFWQTNIFTVVPM had an amyloid nucleation score of 2.17 ± 0.087.

As for RGGGQDDYTRFLGSLNDVPV, the amyloid nucleation score entry is “inactive”.

As for YKHFYSFFCISFS, the amyloid nucleation score is 1.88 ± 0.08.

As to VLLLFWAPVNAGTVWYLWNR, the amyloid nucleation score entry was “inactive”.

Take LFDIVSQITLWQGPTHAFFK: the amyloid nucleation score result was “inactive”.

Regarding FGVIRHERMEMWRHRSNRCV, the amyloid nucleation score result was “inactive”.

On to GTNIFVKTDTYCPFICST, for which the amyloid nucleation score result is “inactive”.

For VYYNSVNVLSVSGCRLDGLN, the amyloid nucleation score came out at 1.66 ± 0.11.

In the case of YLGESWTVPALYVRSDMMFV, the amyloid nucleation score entry is “inactive”.

In the case of YSPSLGSDQACSQLCSLSTF, the amyloid nucleation score entry was “inactive”.

For the substance TKVFVLHSYDCTIKTSGFNS, the amyloid nucleation score entry was “inactive”.

MDGGFECGNEGICWSTCVLG: the amyloid nucleation score result is “inactive”.

With PCICMVIQSGLDEYAYHVQR, the amyloid nucleation score result was “inactive”.

Substance GTDVRS had an amyloid nucleation score of -0.272 ± 0.43.

In the case of LHLTDLYYGF, the amyloid nucleation score result is “inactive”.

As for HIWAHAFISLVLWLSPLSVS, the amyloid nucleation score entry was “inactive”.

For the substance VVDLIRNCKDRTVDLLDGIA, the amyloid nucleation score entry was “inactive”.

For VLLFI, the amyloid nucleation score result was “inactive”.

The substance RSFLIRFILDLVYIRRTRNV gave an amyloid nucleation score of -0.273 ± 1.1.

In the case of VRREYDWMPHHWMGTGLCKC, the amyloid nucleation score result is “inactive”.

For the substance WIYGYAVSLRSLYGLNLSM, the amyloid nucleation score entry was “inactive”.

In the case of DTGFCYKFNYIPVDVIICIC, the amyloid nucleation score worked out at 1.32 ± 0.12.

Consider ADMGGSVGHVSNKSVSSNLL, for which the amyloid nucleation score entry was “inactive”.

On to NYILSHWELV, for which the amyloid nucleation score result is “inactive”.

As for HRLVGTNISSTR, the amyloid nucleation score result was “inactive”.

On to SRFQWLWKMCSNDG, for which the amyloid nucleation score entry is “inactive”.

As to VAIGYIASVLK, the amyloid nucleation score result is “inactive”.

With SFAGVCAMCKTCKRAKGVPA, the amyloid nucleation score was -0.39 ± 1.9.

For the substance SENVYPCALKRSKGMLIRMV, the amyloid nucleation score result is “inactive”.

For FSLHNRGFMIQHKRVLEDGA, the amyloid nucleation score entry was “inactive”.

Turning to SCHLEVLFISLFD, the amyloid nucleation score result was “inactive”.

For HPSVVLHGEATCTASRVLQV, the amyloid nucleation score result is “inactive”.

As to SFNRGRLATLYSSLVHGRLR, the amyloid nucleation score entry was “inactive”.

For the substance TVVDLVIFG, the amyloid nucleation score result was “inactive”.

In the case of TGHWNSDWFLI, the amyloid nucleation score entry was “inactive”.

As to DWGTASSSTVGFEQSSDKVF, the amyloid nucleation score result was “inactive”.

Regarding RNSRSLSLPCC, the amyloid nucleation score entry is “inactive”.

Consider SNTCHLINAKVDPVHERMLS, for which the amyloid nucleation score is 0.176 ± 0.85.

On to LCQTVCRAPI, for which the amyloid nucleation score result is “inactive”.

With VLRKARVVIRSYSMEVRFRS, the amyloid nucleation score entry was “inactive”.

In the case of GYRRKNRHSWTDPGITALNK, the amyloid nucleation score result is “inactive”.

As to VEALILSVRKCVFGLPVPAL, the amyloid nucleation score result was “inactive”.

Substance SQLVVLCCCRSPSFYCGVL registered an amyloid nucleation score of 1.32 ± 0.17.

As to NMIKPSFFIIVVVNTQGFDA, the amyloid nucleation score was determined as 2.97 ± 0.063.

KLYIALMDKYPGATSMFQPV had an amyloid nucleation score of 1.18 ± 0.23.

Take FLALDQISFVIRCLNI: the amyloid nucleation score entry is “inactive”.

In the case of CYCPHPNGESFCFSVSWDTN, the amyloid nucleation score entry is “inactive”.

For IKNYCIIYSETPGRNKCGLR, the amyloid nucleation score turned out to be 1.01 ± 0.22.

As to FSLMLSRTTMAIFTDIRDWG, the amyloid nucleation score result is “inactive”.

Consider CNFLGSRLGYFGNYIFI, for which the amyloid nucleation score result was “inactive”.

As for GAVLLSGEEL, the amyloid nucleation score came to 0.871 ± 0.17.

Turning to VSYTRTIPLKGSNLMLIWF, the amyloid nucleation score result is “inactive”.

As to TKLMGLSVLLIEVIVGVSCW, the amyloid nucleation score result is “inactive”.

Substance IGNCFMTMGRLVSRQDSVPM gave an amyloid nucleation score of -0.427 ± 1.

Turning to NISVLIRCLWNFSEGKAFLA, the amyloid nucleation score entry is “inactive”.

As for VPFDGLFWYCRCR, the amyloid nucleation score entry is “inactive”.

In turn, IRKSFVEKMLPLPFSLAAIG showed an amyloid nucleation score of 0.234 ± 0.44.

Regarding DEFVKYQP, the amyloid nucleation score entry is “inactive”.

For YEVPFSNASWRDGQMRCRCS, the amyloid nucleation score entry is “inactive”.

With YPLCEL, the amyloid nucleation score is 0.193 ± 0.19.

Take IPSTMRDDFAYTNCPNNSFL: the amyloid nucleation score result is “inactive”.

With RDVCVHPNHFKCGAAMFPED, the amyloid nucleation score entry was “inactive”.

On to VACHRS, for which the amyloid nucleation score result is “inactive”.

On to IHGHC, for which the amyloid nucleation score result is “inactive”.

Consider HKRIFGCVISVPFTSCFT, for which the amyloid nucleation score entry was “inactive”.

For VEKCKLLFVTTHECLCHCSR, the amyloid nucleation score result is “inactive”.

Turning to NFIQVMAIIGLFAVHRGCVT, the amyloid nucleation score was determined as 0.758 ± 0.14.

The substance ISQHMANFYNSVVVVCILED had an amyloid nucleation score of 3.19 ± 0.075.

In the case of LSFAVKCFRIGDMNAFNTFI, the amyloid nucleation score entry is “inactive”.

For CQSSDFTEFVRKVKRPPQAC, the amyloid nucleation score result is “inactive”.

Consider CMYSFGEL, for which the amyloid nucleation score entry is “inactive”.

As for NCIAFGWLWSELRN, the amyloid nucleation score result is “inactive”.

With QDKMSMYTYMMR, the amyloid nucleation score result is “inactive”.

As for FMTWHFENCCWCRHSRFGLL, the amyloid nucleation score entry was “inactive”.

As to YCLFASMKDDAQGTQNCDRS, the amyloid nucleation score entry was “inactive”.

Consider CSGAIHYPYRLMRERNFTGR, for which the amyloid nucleation score entry is “inactive”.

Take RNCVSSGCCRRFSD: the amyloid nucleation score result was “inactive”.

Regarding SCNNDPFTNDNASLVRLGRE, the amyloid nucleation score entry is “inactive”.

Turning to QFCSSYWYQGTAYCLLPIAT, the amyloid nucleation score entry was “inactive”.
